The source of these data is PMC10213050 (Nature Communications, 2023).

B1: GST-RNF20N (domain or fragment, human, UniProt Q5VTR2 1-300, looked up)
chain: MSGIGNKRAAGEPGTSMPPEKKAAVEDSGTTVETIKLGGVSSTEELDIRTLQTKNRKLAEMLDQRQAIEDELREHIEKLERRQATDDASLLIVNRYWSQFDENIRIILKRYDLEQGLGDLLTERKALVVPEPEPDSDSNQERKDDRERGEGQEPAFSFLATLASSSSEEMESQLQERVESSRRAVSQIVTVYDKLQEKVELLSRKLNSGDNLIVEEAVQELNSFLAQENMRLQELTDLLQEKHRTMSQEFSKLQSKVETAESRVSVLESMIDDLQWDIDKIRKREQRLNRHLAEVLERVN
notes: also called N-terminal fragment RNF20N (1-300 aa)
B2: 6xHis-Rad51 (natural protein, yeast (Saccharomyces cerevisiae), UniProt P25454 1-400, looked up)
chain: MSQVQEQHISESQLQYGNGSLMSTVPADLSQSVVDGNGNGSSEDIEATNGSGDGGGLQEQAEAQGEMEDEAYDEAALGSFVPIEKLQVNGITMADVKKLRESGLHTAEAVAYAPRKDLLEIKGISEAKADKLLNEAARLVPMGFVTAADFHMRRSELICLTTGSKNLDTLLGGGVETGSITELFGEFRTGKSQLCHTLAVTCQIPLDIGGGEGKCLYIDTEGTFRPVRLVSIAQRFGLDPDDALNNVAYARAYNADHQLRLLDAAAQMMSESRFSLIVVDSVMALYRTDFSGRGELSARQMHLAKFMRALQRLADQFGVAVVVTNQVVAQVDGGMAFNPDPKKPIGGNIMAHSSTTRLGFKKGKGCQRLCKVVDSPCLPEAECVFAIYEDGVGDPREEDE
notes: Rad51 recombinase, yeast; also called 6xHis-tagged Rad51; yeast Rad51; source: E. coli BL21 (DE3), purified (Ni-NTA)
B3: 6xHis-tagged Bre1 truncation 1-501 aa (domain or fragment, yeast (Saccharomyces cerevisiae), UniProt Q07457 1-501, looked up)
chain: MTAEPATKKIKLELSDPSEPLTQSDVIAFQKEALFRCINRRRVDFEALRKQYELSRRECIDVSRKLANIMALIVTLARFIETFCTDANEKQLCREIAQGDETLIVQRSDSFMKLLTKYGKPNTTDSNTNSNASDHIQELTTELKNLRKSKEELFYENSQLTEEISALKEYYTNIIRKYDRDESFTIKRVFKEDKTDAVKELREDEKESNENNIKSGNKDSSAINGDNTSKKSEKGDELVQAEDERKEDAENEKLELDLKFSDLRAEINSLSSTIKDLENIRRENEEELIKTRSEVSNLKKQQIAAADQDPDFKSYDHESLLAKIQHLTEQNAELSEINSSFLSKFQVLAKEKEIYTKKVREEFQKSLDSLVEMNSSLEKDVVRIRTARDDLLSKIAILEAEKSKTEVLSDLQHAIDILKEQWTKIDQRSNDTKSSSTQDALIKEIQDLEKGFRELSDLTHKKYSEIINHESVISKLTVEKTKADQKYFAAMRSKDSILIEI
notes: source: recombinant, 6xHis-tagged
B4: 6xHis-hRad51 (natural protein, human, UniProt Q06609 1-339, looked up)
chain: MAMQMQLEANADTSVEEESFGPQPISRLEQCGINANDVKKLEEAGFHTVEAVAYAPKKELINIKGISEAKADKILAEAAKLVPMGFTTATEFHQRRSEIIQITTGSKELDKLLQGGIETGSITEMFGEFRTGKTQICHTLAVTCQLPIDRGGGEGKAMYIDTEGTFRPERLLAVAERYGLSGSDVLDNVAYARAFNTDHQTQLLYQASAMMVESRYALLIVDSATALYRTDYSGRGELSARQMHLARFLRMLLRLADEFGVAVVITNQVVAQVDGAAMFAADPKKPIGGNIIAHASTTRLYLRKGRGETRICKIYDSPCLPEAEAMFAINADGVGDAKD
notes: human Rad51 recombinase; also called recombinant hRad51; source: E. coli BL21 (DE3), purified (Ni-NTA)

Common to all, as to settings: both partners purified
The target of experiment [1] is B4. The experiment can be described thus: pull-down; ssDNA pull-down: 5'-biotinylated 90-nt ssDNA on streptavidin magnetic beads, yeast or human Rad51 bound first, then Bre1 or RNF20N added; 37 °C; 42 mM Tris-HCl pH 7.5, 15 mM KCl, 90 mM NaCl, 2 mM ATP; Bre1 or RNF20N alone did not bind the ssDNA.
For experiment [2], the target named is T1, GST-tagged truncated Bre1 1-504 aa (yeast (Saccharomyces cerevisiae), UniProt Q07457 1-504).
T1 construct: source: recombinant, GST-tagged
T1 sequence (looked up): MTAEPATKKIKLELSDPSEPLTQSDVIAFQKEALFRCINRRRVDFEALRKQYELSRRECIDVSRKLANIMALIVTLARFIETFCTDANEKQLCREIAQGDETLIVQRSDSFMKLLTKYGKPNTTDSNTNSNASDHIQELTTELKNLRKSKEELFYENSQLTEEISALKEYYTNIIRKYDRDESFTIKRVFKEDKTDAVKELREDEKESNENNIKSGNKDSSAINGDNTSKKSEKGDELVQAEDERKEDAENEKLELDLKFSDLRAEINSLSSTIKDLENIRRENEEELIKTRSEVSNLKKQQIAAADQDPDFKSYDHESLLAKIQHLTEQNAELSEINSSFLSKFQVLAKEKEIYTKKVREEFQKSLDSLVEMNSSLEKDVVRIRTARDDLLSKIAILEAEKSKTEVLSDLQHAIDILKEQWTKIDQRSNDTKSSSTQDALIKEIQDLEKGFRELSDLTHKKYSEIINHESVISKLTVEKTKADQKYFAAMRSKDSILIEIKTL
Nature of the experiment: pull-down; GST-tagged Bre1 (WT, truncated or mutant) or GST-RNF20 on glutathione agarose beads, incubated with 6xHis-tagged Rad51, hRad51 or FBH1 at 4 °C for 4 h; wash 20 mM Tris-HCl pH 7.4, 200 mM NaCl; Western blot or Coomassie. A general note: A western blot detects proteins with antibodies after separation by electrophoresis.

Experiment [3] deals with T2, GST-Bre1 (yeast (Saccharomyces cerevisiae), UniProt Q07457 1-700).
T2 construct: Bre1, yeast ubiquitin E3 ligase; RBD 1-210, linker 211-614, RING 615-700; also called GST-tagged WT Bre1; recombinant GST-Bre1
T2 sequence (looked up): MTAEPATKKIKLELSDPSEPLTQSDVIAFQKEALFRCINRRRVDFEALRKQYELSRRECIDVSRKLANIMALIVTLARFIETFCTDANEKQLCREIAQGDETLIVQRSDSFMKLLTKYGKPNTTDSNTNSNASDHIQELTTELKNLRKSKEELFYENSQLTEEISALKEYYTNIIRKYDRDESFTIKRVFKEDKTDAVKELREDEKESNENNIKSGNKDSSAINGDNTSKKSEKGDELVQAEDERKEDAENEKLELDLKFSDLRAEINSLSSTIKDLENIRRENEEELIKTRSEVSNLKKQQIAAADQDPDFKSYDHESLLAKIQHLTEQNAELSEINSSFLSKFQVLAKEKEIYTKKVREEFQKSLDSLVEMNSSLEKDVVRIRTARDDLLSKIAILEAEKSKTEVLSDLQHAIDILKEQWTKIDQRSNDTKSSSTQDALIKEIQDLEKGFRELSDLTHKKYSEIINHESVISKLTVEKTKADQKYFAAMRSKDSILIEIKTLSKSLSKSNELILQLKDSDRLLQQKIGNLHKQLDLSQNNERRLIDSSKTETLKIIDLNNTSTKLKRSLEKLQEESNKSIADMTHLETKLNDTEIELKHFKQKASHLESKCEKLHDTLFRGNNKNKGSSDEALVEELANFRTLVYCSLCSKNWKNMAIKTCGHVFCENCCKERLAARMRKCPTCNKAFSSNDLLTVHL
Described as above.

Experiment [4] has as its target T3, 6xHis-Bre1 (yeast (Saccharomyces cerevisiae), UniProt Q07457 1-700).
T3 construct: Bre1, yeast ubiquitin E3 ligase; also called WT Bre1; wild-type Bre1; source: E. coli BL21 (DE3), purified (Ni-NTA)
T3 sequence (looked up): T2 sequence (looked up)
Nature of the experiment: pull-down; ssDNA pull-down: 5'-biotinylated 90-nt ssDNA on streptavidin magnetic beads, yeast or human Rad51 bound first, then Bre1 or RNF20N added; 37 °C; 42 mM Tris-HCl pH 7.5, 15 mM KCl, 90 mM NaCl, 2 mM ATP; Bre1 or RNF20N alone did not bind the ssDNA.

For experiment [5], the target named is T4, GST-Srs2 (yeast (Saccharomyces cerevisiae), UniProt P12954 1-1174).
T4 construct: Srs2 helicase, yeast; also called recombinant GST-Srs2
T4 sequence (looked up): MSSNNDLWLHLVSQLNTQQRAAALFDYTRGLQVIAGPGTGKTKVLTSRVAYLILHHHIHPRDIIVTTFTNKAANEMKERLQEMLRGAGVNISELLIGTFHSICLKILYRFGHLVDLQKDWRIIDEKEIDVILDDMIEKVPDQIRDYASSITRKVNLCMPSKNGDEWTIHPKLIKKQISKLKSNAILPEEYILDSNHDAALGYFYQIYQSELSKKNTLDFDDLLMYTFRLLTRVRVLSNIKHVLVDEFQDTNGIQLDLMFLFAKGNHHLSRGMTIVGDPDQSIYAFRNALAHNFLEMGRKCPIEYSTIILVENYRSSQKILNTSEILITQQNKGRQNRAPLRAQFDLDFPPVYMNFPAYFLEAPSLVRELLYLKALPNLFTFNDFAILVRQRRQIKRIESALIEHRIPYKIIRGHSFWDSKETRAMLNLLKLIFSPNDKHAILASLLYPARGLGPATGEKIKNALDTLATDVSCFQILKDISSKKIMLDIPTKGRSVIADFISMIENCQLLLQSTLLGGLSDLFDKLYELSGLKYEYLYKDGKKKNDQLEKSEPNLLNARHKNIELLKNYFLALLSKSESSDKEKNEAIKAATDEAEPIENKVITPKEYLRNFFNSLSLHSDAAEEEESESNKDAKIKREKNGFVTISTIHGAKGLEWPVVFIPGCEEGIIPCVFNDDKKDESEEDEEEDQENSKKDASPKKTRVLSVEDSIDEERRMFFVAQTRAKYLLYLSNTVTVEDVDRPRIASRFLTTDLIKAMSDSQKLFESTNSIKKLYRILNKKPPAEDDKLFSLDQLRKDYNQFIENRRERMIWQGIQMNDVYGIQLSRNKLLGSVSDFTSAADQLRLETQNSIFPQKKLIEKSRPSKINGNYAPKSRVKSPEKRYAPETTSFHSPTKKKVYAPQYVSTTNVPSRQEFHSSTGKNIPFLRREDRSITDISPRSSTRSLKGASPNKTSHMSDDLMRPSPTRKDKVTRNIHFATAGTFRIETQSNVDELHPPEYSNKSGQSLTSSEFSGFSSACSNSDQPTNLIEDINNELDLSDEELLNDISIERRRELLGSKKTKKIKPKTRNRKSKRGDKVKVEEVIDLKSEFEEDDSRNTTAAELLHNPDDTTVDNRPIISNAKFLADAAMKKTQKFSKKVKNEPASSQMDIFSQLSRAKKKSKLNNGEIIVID
The experiment can be described thus: pull-down; GST-Srs2 on beads with 6xHis-tagged WT, truncated or mutated Bre1; detected by Western blot with an anti-His antibody; whether ssDNA was included is not told.

Experiment [6] deals with T5, GST-RNF20 (human, UniProt Q5VTR2 1-975).
T5 construct: RNF20, human homolog of Bre1; an asterisk marks the full-length band on the gel; also called full-length GST-RNF20
The experiment can be described thus: pull-down; GST-tagged Bre1 (WT, truncated or mutant) or GST-RNF20 on glutathione agarose beads, incubated with 6xHis-tagged Rad51, hRad51 or FBH1 at 4 °C for 4 h; wash 20 mM Tris-HCl pH 7.4, 200 mM NaCl; Western blot or Coomassie.

As for B1, the binding result in experiment [1] was “binds”.

Consider B2, for which the binding result in experiment [2], in experiment [3] and in experiment [4] was “binds” in each case.

As for B3, the binding result in experiment [5] was “binds”.

On to B4, for which the binding result in experiment [6] is on record as “binds”.
